Results on 56 substances are retold here after the supplement of paper PMC12042874.

± gives the uncertainty stated by the source.

This series is described as follows: amyloid nucleation score (Sup35N fusion, yeast selection) (log enrichment); library NNK2; higher = more nucleation; inactive = no reads after selection. The procedure, abridged: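 For the nucleation score, DiMSum gave the log enrichment of output over input reads, centred on the mode score of non-aggregating sequences. Psi-negative yeast expressing Sup35N fused to peptides of 20 random codons were induced with 100 μM copper sulfate for 24 hours and grown 7 days at 30°C on medium lacking adenine and uracil. Input and output plasmid inserts were Illumina-sequenced, and sequences with under 100 input reads were excluded.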

The substance CAKLGTSSRFIFE showed an amyloid nucleation score of 0.073 ± 1.1.

Turning to VSGRDHTNNTGLYAWLHFCY, the amyloid nucleation score is -0.493 ± 0.63. Next, YLLRNWLPGKVGCHQFLILW: 0.757 ± 0.39; DITTEVKGSLLVMLSGDNAG: 0.807 ± 0.31.

Turning to PSWHI, the amyloid nucleation score was -0.193 ± 0.47. Next, GRMQTKTILKNIECNNDSLM: 2.39 ± 0.057; YNLSSLLRCDLAAKTRTIFM: -0.575 ± 0.35. Regarding FCGYSAVVSRAGGCTNLSDE, the amyloid nucleation score entry was “inactive”.

In turn, DQAHRGSCDVS displayed an amyloid nucleation score of 0.214 ± 0.63. The same measure for LVGHYSDRDYVEYARRDCAG: 0.252 ± 0.8. The same measure for VPPSLLYLQTRDSPPEERMM: 0.374 ± 0.64. Next, RRQRWKRLTNF: “inactive”; YNVMDVMYYAQKWLLWWSKV: -0.353 ± 0.41.

For the substance ILSDKCLIGIGCSISSDTAG, the amyloid nucleation score is -0.352 ± 0.38.

GCVPVRYIARSAWNNPDLPN displayed an amyloid nucleation score of 0.829 ± 0.57. As to FSRLTGN, the amyloid nucleation score is -0.883 ± 0.54.

Regarding VCYRSKASILLYGTPGGVRV, the amyloid nucleation score was -0.184 ± 1.1. Next, KIVCDPGCIFMPFLCVCLLW: 6.07 ± 0.082; NSIESNSCKWVRNVCTANSG: -0.587 ± 0.76; PLTNSNRPGMKHLSSKQSSV: 0.138 ± 0.41.

Regarding DNVMLYKRKKQRPIMVPWSA, the amyloid nucleation score was -0.488 ± 0.35. Next, AAVFMLQRLDFINRMASASF: 3.72 ± 0.055. The same measure for HLLPWMRVLYTYVCSNIQMF: -0.45 ± 0.36; for YCFVDALSCDLPNHEHMDVF: “inactive”. The same measure for GLVGPSI: -0.29 ± 0.48; for LRRVSGRLDSIWSWCVRCNE: -1.02 ± 1.1; for VWVKRVDASSCAVS: 1.26 ± 0.38. As for RCYVFKLSFGDTQCELFRIT, the amyloid nucleation score was 6.406 ± 0.049. Next, NVIRHLPPSYWRSLHSQMFP: “inactive”; LNEVFDLVPSYCKFSVVRGL: -1.14 ± 0.64; KNLRWCQGFSRGIECRSLMV: -0.639 ± 0.55. The same measure for ILTGR: -0.16 ± 0.55; for TMWYIGKITRPSLRAGSGFT: -1.16 ± 0.48; for LVQCLLYSLWCQALSQPMYV: -0.753 ± 1.

Turning to VCFCQAFYGTRYHKCLVGLF, the amyloid nucleation score entry was “inactive”. Next, FEGCCWVVGLLRLSG: 8.713 ± 0.077.

As to IVWGC, the amyloid nucleation score turned out to be 0.493 ± 0.34.

For DFISCVLFSLFFRTLSRKGH, the amyloid nucleation score was -0.679 ± 0.64. The same measure for GCVCDVGPVTVRGVNGVLVS: 1.45 ± 0.26.

Regarding SPYRLSPTQTLSFCFIRHLP, the amyloid nucleation score result was “inactive”. Next, NMPHPHEFIRSPCICLRHVV: “inactive”; LGPLVMVFCVRIPYTTMVAW: -1.25 ± 0.45; GFSLNISKCVFLRFIWVFHF: -0.447 ± 1.1. The same measure for AGMHLRVWHSDTHHWLLLNR: 3.76 ± 0.074. Consider YRLFSRWAVVRFMGVGSLSF, for which the amyloid nucleation score is -0.691 ± 0.56. Next, RLKAPLPYDEIFQLFVIGEI: 0.698 ± 0.8. The same measure for GSVRSMVGFNACRTSLYESC: 0.012 ± 1.

As to ICSDFGPNSGYRHQWVCIGV, the amyloid nucleation score is -0.023 ± 0.45. The same measure for AWKMVMRLDARPLARFWGDG: 5.34 ± 0.092; for KWVMRNIWDTYSKVGLQSST: -0.206 ± 0.39; for DFESGWFSVDFVN: -0.853 ± 0.55. In the case of NWIQRQVL, the amyloid nucleation score entry is “inactive”. The same measure for SDNSM: -0.235 ± 0.32; for DGFSFIVRSFVWRNNHADAG: 3.71 ± 0.12; for DSTFKYYRTYLKERR: -0.357 ± 0.41. FTIFNKLCCVNYWVCILCYR registered an amyloid nucleation score of 5.144 ± 0.049.
